Assay results published in patent US6017747A, “Nucleic acids encoding a collagenase” (The Regents of the University of California, priority 1997, dated 2000).

T1: recombinant collagenase (Leptuca pugilator, UniProt P00771)
T1 construct: the mature form of the cloned collagenase (illustrated in the boxed section) has 226 amino acid residues; made in house; host or cells: Saccharomyces cerevisiae (strain AB110 or DM101α), PyFC vector
T1 sequence (P00771 1-226 V95S): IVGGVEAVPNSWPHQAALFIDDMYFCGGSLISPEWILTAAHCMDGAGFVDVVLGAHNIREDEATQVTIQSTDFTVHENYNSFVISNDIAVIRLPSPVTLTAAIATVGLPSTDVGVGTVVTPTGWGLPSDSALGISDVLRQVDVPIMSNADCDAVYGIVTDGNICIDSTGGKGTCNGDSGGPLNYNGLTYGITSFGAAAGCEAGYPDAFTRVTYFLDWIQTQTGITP

B1: Trypsin: Recombinant rat trypsin purified by published techniques (protein, UniProt P00763 24-246, looked up)
Anionic trypsin-2: IVGGYTCQENSVPYQVSLNSGYHFCGGSLINDQWVVSAAHCYKSRIQVRLGEHNINVLEGNEQFVNAAKIIKHPNFDRKTLNNDIMLIKLSSPVKLNARVATVALPSSCAPAGTQCLISGWGNTLSSGVNEPDLLQCLDAPLLPQADCEASYPGKITDNMVCVGFLEGGKDSCQGDSGGPVVCNGELQGIVSWGYGCALPDNPGVYTKVCNYVDWIQDTIAAN

Assays:
[1] = biological target: T1, recombinant collagenase; test: Inhibition of collagenolytic activity of recombinant collagenase; assay type: biochemical, Uca pugilator; details: recombinant enzyme
Excerpt: The collagenolytic activity of the recombinant collagenase was compared directly to that of the endogenous enzyme isolated from the crab hepatopancreas. The specificity and rate of collagen cleavage are similar.

[2] = single residue esters; cited from earlier work
[3] = Steady state kinetics versus the Suc-AAP-Xaa-pNA substrate set; assay type: biochemical; details: for r of correlation for log kcat or log (kcat /Km) versus P1 residue volume: Val and Ile omitted for chymotrypsin, Nva and Leu deleted for elastase; for correlation of log (kcat /Km) with π: hydrophobicity constant π
Method: Recombinant rat trypsin was purified by published techniques. Other reagents were purchased from the following sources: TLCK treated bovine chymotrypsin (Sigma), porcine elastase (Calbiochem), bovine calf skin collagen (US Biochemical), Suc-AAPAbu-pNA (Bachem of California) and Z-GPR-Sbzl (Enzyme Systems Products). All other substrates were from Bachem Bioscience. All enzyme active site titrations, substrate calibrations, kinetic assays and collagen digestions were carried out by conventional methods. Briefly, pNA kinetic assays were monitored at 410 nm (E410 =8,480 M^-1 cm^-1) in 50 mM Tris, 100 mM NaCl, 20 mM CaCl2, pH 8.0 at 25° C. 1 to 4% DMF or 2% Me2 SO was present in the final reaction buffer. Benzylthioester kinetic assays were monitored at 324 nm (E324 =19,800 M^-1 cm^-1) in the above buffer at 25° C. with the inclusion of 250 μM dithiodipyridine (Chemical Dynamics) and 2% DMF. AMC spectrofluorimetric assays were monitored at an excitation wavelength of 380 nm and an emission wavelength of 460 nm, under conditions identical to those for pNA. Assays were done in duplicate for 5 substrate concentrations, except for Suc-AAP-Asp-pNA, for which the kcat /Km was determined using 3 substrate concentrations in duplicate. The steady state kinetic parameters were determined by non-linear regression fit to the Michaelis Menten equation. Standard deviation in kcat /Km was generally less than 10%, though individual rate and binding constants varied to a greater extent. […] Kinetic parameters were plotted versus P1 residue volume and the hydrophobicity constant, π.
The Michaelis constants of the recombinant collagenase were determined for a matched set of 15 Suc-AAP-Xaa-pNA substrates, varying only in the P1 residue. […] The remaining 10 substrates Ala, Abu (2-aminobutyric acid), Nva (norvaline), Val, Nle (norleucine), Ile, Met, Orn (ornithine), Asp and Glu were selected to more fully map the specificity of crab collagenase for hydrophobic, basic and acidic residues. The substrate preference of the collagenase is quite broad. […] Acidic residues are generally poor substrates. […] This implies the existence of several distinct S1 sites or a single flexible site. […] The correlation is improved and slope essentially unchanged if only the hydrophobic residues Ala, Abu (2-aminobutyric acid), Nva (norvaline), Nle (norleucine), Leu, Met and Phe are included. […] It is unclear how the enzyme binds the neutral hydrophilic and basic residues so as to minimize the effects of charge or polarity in the transition state. Bias or insensitivity in the data set may also affect the interpretation of the correlations.
The steady state kinetic parameters of chymotrypsin and elastase versus the Suc-AAP-Xaa-pNA substrate set were determined under conditions identical to those for crab collagenase. This was necessary in order to accurately compare the activities of these different enzymes.

[4] = Single residue versus peptidyl P1-Phe substrate efficiency; assay type: biochemical
Method: (§1) Recombinant rat trypsin was purified by published techniques. Other reagents were purchased from the following sources: TLCK treated bovine chymotrypsin (Sigma), porcine elastase (Calbiochem), bovine calf skin collagen (US Biochemical), Suc-AAPAbu-pNA (Bachem of California) and Z-GPR-Sbzl (Enzyme Systems Products). All other substrates were from Bachem Bioscience. All enzyme active site titrations, substrate calibrations, kinetic assays and collagen digestions were carried out by conventional methods. Briefly, pNA kinetic assays were monitored at 410 nm (E410 =8,480 M^-1 cm^-1) in 50 mM Tris, 100 mM NaCl, 20 mM CaCl2, pH 8.0 at 25° C. 1 to 4% DMF or 2% Me2 SO was present in the final reaction buffer. Benzylthioester kinetic assays were monitored at 324 nm (E324 =19,800 M^-1 cm^-1) in the above buffer at 25° C. with the inclusion of 250 μM dithiodipyridine (Chemical Dynamics) and 2% DMF. AMC spectrofluorimetric assays were monitored at an excitation wavelength of 380 nm and an emission wavelength of 460 nm, under conditions identical to those for pNA. Assays were done in duplicate for 5 substrate concentrations, except for Suc-AAP-Asp-pNA, for which the kcat /Km was determined using 3 substrate concentrations in duplicate. The steady state kinetic parameters were determined by non-linear regression fit to the Michaelis Menten equation. […]

[5] = Single residue versus peptidyl P1-Ala substrate efficiency; assay type: biochemical
Method: as §1

[6] = Single residue versus peptidyl P1-Arg substrate efficiency; assay type: biochemical
Method: as §1

Molecule | inhibition of collagenolytic activity [1] | slope of correlation of log (k2 /KS) with π [2] | correlation for log kcat or log (kcat /Km) versus P1 residue volume [3] | correlation of Km versus volume [3] | sensitivity of log (kcat /Km) to residue volume [3] | r of correlation for log kcat or log (kcat /Km) versus P1 residue volume [3] | correlation of log (kcat /Km) with π [3] | kcat /Km differential, single residue versus peptidyl substrate [4] | kcat /Km differential, single residue versus peptidyl substrate [5] | kcat /Km differential, single residue versus peptidyl substrate [6] [fold]
NCCc1ccc(S(=O)(=O)F)cc1 [AEBSF] | completely inhibited | – | – | – | – | – | – | – | – | –
Chymotrypsin | – | 2.2 | Strong positive | tight negative correlation | twice that of collagenase | ≤ 0.95 | also correlated with π | 10,000 fold | – | –
elastase: porcine elastase (Calbiochem) | – | – | negative | much weaker | twice that of collagenase | ≤ 0.95 | correlated well, with a slope equal and opposite that for chymotrypsin | – | 100,000 fold | –
B1 | – | – | – | – | – | – | – | – | – | 100
